The values that follow come from FireProtDB (doi:10.1021/bi034371e).

Several values for one entry are separate records, joined by “and”; a condition that tells them apart may be missing. Identical values can stand only once.

For the data set the following is noted: Spinacia oleracea, pH 7, Thermal, whole UniProt chain shown.
Where [1] appears, read: DSC, potassium phosphate 10 mM, reversible: No.
Where [2] appears, read: DSC, potassium phosphate 10 mM, reversible: Yes, 90%.
Where [3] appears, read: DSC, potassium phosphate 10 mM, reversible: Yes.
Where [4] appears, read: NMR, phosphate 10 mM, reversible: No.

B1: Plastocyanin, chloroplastic wild type, P00289 (protein)
chain: MATVASSAAVAVPSFTGLKASGSIKPTTAKIIPTTTAVPRLSVKASLKNVGAAVVATAAAGLLAGNAMAVEVLLGGGDGSLAFLPGDFSVASGEEIVFKNNAGFPHNVVFDEDEIPSGVDAAKISMSEEDLLNAPGETYKVTLTEKGTYKFYCSPHQGAGMVGKVTVN
As a reminder, the Tm is the temperature at the midpoint of the melting transition. With B1, the Tm runs as follows: under setting [1], 67.8 °C and 67.2 °C; under setting [2], 71 °C; under setting [3], 71.2 °C; under setting [4], 67.9 °C. Also, the “unfolding enthalpy (van 't Hoff)” value was 84.6 kcal/mol and 84.1 kcal/mol under setting [1]; 85.6 kcal/mol under setting [2]; 82 kcal/mol under setting [3]; 115 kcal/mol under setting [4]. The “unfolding enthalpy (calorimetric)” value under setting [3] amounted to 118 kcal/mol.
